The data set concerns the molecule itself. The data set is described as follows: native MS; 50 μM protein exchanged into 200 mM ammonium acetate pH 7.4; nano electrospray, Q Exactive UHMR.

B1: AtGet3dΔ1–57 from His8-SUMO-GSx2-AtGet3dΔ1–57 (native mass spectrometry sample) (natural protein, Arabidopsis thaliana, UniProt Q6DYE4 58-455, looked up)
chain: TKFVTFLGKGGSGKTTAAVFAAQHYALAGLSTCLVIHNQDPSAEFLLGSKIGTSPTLINDNLSVIRLETTKMLLEPLKQLKQADARLNMTQGVLEGVVGEELGVLPGMDSIFSMLELERLVGFFRQATRKNHKGKPFDVIIYDGISTEETLRMIGLSSKTRLYAKYLRSLAEKTDLGRLTSPSIMRFVDESMNINSNKSPFDGMTSPAMWDTLERFLETGASAWRDPERFRSFLVMDPNNPMSVKAALRYWGCTVQAGSHVSGAFAISSSHLTSQIPKADFVPLPFASASVPFTITGLDWDKILLDQANSSIRELLSETVSHGTSLTQTVMFDTAKKLVTLFMPGFEKSEIKLYQYRGGSELLIEAGDQRRVIHLPSQIQGKVGGAKFVDRSLIVTMR
notes: Get3d, Arabidopsis thaliana, UniProt Q6DYE4, without the first 57 amino acids (chloroplast transit peptide); Dialysed with Ulp1 after Ni-NTA; the GSx2 linker between SUMO and AtGet3d probably stays on the N-terminus after cleavage (surmised); Copurifies with small molecules of about 750 Da; source: E. coli NiCo21(DE3), purified (Ni-NTA, Ulp1 digestion, Superdex 200 SEC); not shown: His8, …
As for B1, the “stoichiometry N” value was determined as 2.

By stoichiometry N is commonly meant the number of molecules, sites or subunits per partner or assembly.

For the origin of these results see publication PMC10248533 (The Journal of Biological Chemistry, 2023).
